In patent US20200010567A1 (NEURIMMUNE, published 2020) one finds EC50 data, which are given here for five molecules.

Some results are limits rather than exact numbers.

One experiment addresses T1, GA5: H-(GA)5HHHHHH-NH2.
T1 peptide: H-GAGAGAGAGAHHHHHH-NH2
Put plainly: indirect ELISA, coated His-tagged peptide. The source says: (§1) In brief, dipeptide repeat proteins were synthesized and purified by Schafer-N (Copenhagen, Denmark): GA₂₀: H-(GA)₂₀HHHHHH-NH₂; GA₁₀: H-(GA)₁₀HHHHHH-NH₂; GA₆: H-(GA)₆HHHHHH-NH₂; GA₅: H-(GA)₅HHHHHH-NH₂; GA₄: H-(GA)₄HHHHHH-NH₂; GA₃: H-(GA)₃HHHHHH-NH₂; GA₂: H-(GA)₂HHHHHH-NH₂; GP₂₀: H-(GP)₂₀HHHHHH-NH₂; GP₁₀: H-(GP)₁₀HHHHHH-NH₂; GP₆: H-(GP)₆HHHHHH-NH₂; GP₅: H-(GP)₅HHHHHH-NH₂; GP₄: H-(GP)₄HHHHHH-NH₂; GP₃: H-(GP)₃HHHHHH-NH₂; GP₂: H-(GP)₂HHHHHH-NH₂. GR₂₀: H-(GR)₂₀HHHHHH-NH₂; GR₁₀: H-(GR)₁₀HHHHHH-NH₂; GR₆: H-(GR)₆HHHHHH-NH₂; GR₅: H-(GR)₅HHHHHH-NH₂; GR₄: H-(GR)₄HHHHHH-NH₂; GR₃: H-(GR)₃HHHHHH-NH₂; GR₂: H-(GR)₂HHHHHH-NH₂; PA₂₀: H-(PA)₂₀HHHHHH-NH₂; PA₁₀: H-(PA)₁₀HHHHHH-NH₂; PA₆: H-(PA)₆HHHHHH-NH₂; PA₅: H-(PA)₅HHHHHH-NH₂; PA₄: H-(PA)₄HHHHHH-NH₂; PA₃: H-(PA)₃HHHHHH-NH₂; PA₂: H-(PA)₂HHHHHH-NH₂; PR₂₀: H-(PR)₂₀HHHHHH-NH₂; PR₁₀: H-(PR)₁₀HHHHHH-NH₂; PR₆: H-(PR)₆HHHHHH-NH₂; PR₅: H-(PR)₅HHHHHH-NH₂; PR₄: H-(PR)₄HHHHHH-NH₂; PR₃: H-(PR)₃HHHHHH-NH₂; PR₂: H-(PR)₂HHHHHH-NH₂. 96-well microplates (Corning Incorporated, Corning, USA) were coated with dipeptide repeat protein peptides at a concentration of 50 μg/ml in coating buffer (15 mM Na₂CO₃, 35 mM NaHCO₃, pH 9.42). Non-specific binding sites were blocked for 1 h at room temperature with PBS/0.1% Tween®-20 containing 2% BSA (Sigma-Aldrich, Buchs, Switzerland). Primary antibodies were diluted to the indicated concentrations and incubated 1 h at room temperature, followed by incubation with a donkey anti-human IgG Fcγ-specific antibody conjugated with HRP (Jackson ImmunoResearch Laboratories, Inc., West Grove, USA). Binding was determined by measurement of HRP activity in a standard colorimetric assay. EC₅₀ values were estimated by non-linear regression using GraphPad Prism software (San Diego, USA).

For another experiment, the target named is T2, GA6: H-(GA)6HHHHHH-NH2.
T2 peptide: H-GAGAGAGAGAGAHHHHHH-NH2
Kind of experiment: indirect ELISA, coated His-tagged peptide; indirect ELISA, peptide coated directly on the plate.
Source text: as §1

The target in the next experiment is T3, (GP)15: H-C(GP)15-OH.
T3 construct: synthetic, not coupled to BSA; also called poly-GP DPR protein peptide
T3 peptide: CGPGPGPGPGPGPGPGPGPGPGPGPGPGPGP
Put plainly: indirect ELISA, coated uncoupled peptide. On the procedure: In brief, dipeptide repeat proteins were synthesized and purified by Schafer-N(Copenhagen, Denmark): (GA)₁₅: H-CHHHHHH(GA)₁₅-OH; (GP)₁₅: H-C(GP)₁₅-OH; (GR)₁₅: H-C(GR)₁₅-OH; (PA)₁₅: H-C(PA)₁₅-OH; (PR)₁₅: H—C(PR)₁₅-OH. 96-well microplates (Corning Incorporated, Corning, USA) were coated with dipeptide repeat protein peptides at a concentration of either 5 μg/ml or 20 μg/ml in coating buffer (15 mM Na₂CO₃, 35 mM NaHCO₃, pH 9.42). Non-specific binding sites were blocked for 1 h at room temperature with PBS/0.1% Tween®-20 containing 2% BSA (Sigma-Aldrich, Buchs, Switzerland). Primary antibodies were diluted to the indicated concentrations and incubated for 1 h at room temperature, followed by incubation with a donkey anti-human IgG Fcγ-specific antibody conjugated with HRP (Jackson ImmunoResearch Laboratories, Inc., West Grove, USA). Binding was determined by measurement of HRP activity in a standard colorimetric assay. EC₅₀ values were estimated by non-linear regression using GraphPad Prism software (San Diego, USA). The binding specificity and EC₅₀ of human-derived antibodies for C9orf72 dipeptide repeat protein peptides (GA)₁₅, (GP)₁₅, (GR)₁₅, (PA)₁₅ and (PR)₁₅ were determined by indirect ELISA.

In another experiment the target is T4, GP20: H-(GP)20HHHHHH-NH2 (C-terminal amide).
T4 peptide: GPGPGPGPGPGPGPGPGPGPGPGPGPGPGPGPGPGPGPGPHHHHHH
Kind of experiment: indirect ELISA, coated His-tagged peptide.
Source text: as §1

In experiment [1] the target is T5, monomeric C9orf72 (GA)20 DPR protein peptide preparation (C-terminal amide).
T5 construct: also called monomeric (GA)20
T5 peptide: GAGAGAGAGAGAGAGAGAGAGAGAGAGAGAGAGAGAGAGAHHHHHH
Put plainly: sandwich ELISA, preparation captured by anti-His antibody. The procedure: (§2) 96-well microplates (Corning Incorporated, Corning, USA) were coated with monoclonal mouse anti-His tag antibody (Takara Bio Europe/Clontech, Saint-Germain-en-Laye, France) at a concentration of 10 μg/ml in coating buffer (15 mM Na₂CO₃, 35 mM NaHCO₃, pH 9.42) overnight at 4° C. Non-specific binding sites were blocked for 1 h at room temperature with PBS/0.1% Tween®-20 containing 2% BSA (Sigma-Aldrich, Buchs, Switzerland). After a washing step, his-tagged (GA)₂₀ DPR protein peptide preparations at equal concentration of 5 μM in PBS (pH 7.4) were added for target-trapping by the anti-His tag antibody for 1 h at room temperature. […] Antibody binding to DPR protein peptides was detected by a donkey anti-human IgG Fcγ-specific antibody conjugated with HRP at 1:5000 dilution (Jackson ImmunoResearch Laboratories, Inc., West Grove, USA) for 1 h at RT. Binding was determined by measurement of HRP activity in a standard colorimetric assay. EC₅₀ values were estimated by non-linear regression using GraphPad Prism software (San Diego, USA).

Experiment [2] addresses T6, aggregated C9orf72 (GA)20 DPR protein peptide preparation (C-terminal amide).
T6 construct: also called aggregated (GA)20; amyloid-fibril like aggregated (GA)20
T6 peptide: T5 peptide
The experiment is described as above. The procedure: as §2

B1: NI-308.28G1 (antibody, V domains shown)
VH: QVQLQESGPRLVKPSETLSLTCTVAGGSVNSYYWTWIQQSPGKGLEWLGRIYIAGRTNYNPSLTSRIALSVDTSRNQLSLKLTSVTAADTAIYYCARWGAESGDYYYGVDVWGPGTLVTVSS
VL: EIVMTQSPLSLPVTPGEPASISCKSSEGLLHSNGYTYLDWYLQKPGQAPQLLIFLASNRAAGVPDRFSGSGSGTDFTLKISRVEAEDVGVYYCMQAIQSPWTFGPGTKVEIK
notes: Recombinant complete human IgG1, kappa
As to B1, the EC50 with GA5: H-(GA)5HHHHHH-NH2 was > 200 nM; with GA6: H-(GA)6HHHHHH-NH2, 6.3 nM.

B2: NI-308.46E9 (antibody, V domains shown)
VH: QVQLQESGPGLVKPSETLSLTCTVSGASISGSTYYWGWIRQPPGKGLEYIGRIYYSGSTYYNPSLKSRATISVDTSKNQLSLTLSSVTAADTAVYYCVRPFYAGSGNSPFDYWGQGTLVTVSS
VL: CEIVLTQSPATVSVSPGERATLSCRASQSVSTNLAWYQQKPGQPPRLLIYGASTRATGIPARFSGSGSGAEFTLTISSLQSEDFVVYYCQQYNNWPPAFGGGTKVEIK
notes: as for B1
For B2, the EC50 with (GP)15: H-C(GP)15-OH worked out at 13.9 nM; with GP20: H-(GP)20HHHHHH-NH2, 15.5 nM.

B3: NI-308.5G2 (antibody, V domains shown)
VH: EVQLVQSGADLRNPGASVTVSCTASGYHFADNAINWLRQAPGQRLEWMGWINIYSGNTKYSQNFQGRVTFTRNTSASTAFMHLRSLRSEDTAVYFCARDPDSSGYYLPYFDYWGQGTLVTVSS
VL: DIQLTQSPDSLTLSLGERATINCKSSQSVFYNSNNKNYLAWYQQKPGQPPKLLMYWASTRESGVTDRFSGSGSGTDFTLTITNLQAEDVAVYYCQQFYSSPLTFGGGTKVEIK
notes: as for B1
As for B3, the EC50 amounted to 0.88 nM in the experiment with (GP)15: H-C(GP)15-OH and 0.47 nM with GP20: H-(GP)20HHHHHH-NH2.

B4: NI-308.18F7 (antibody, V domains shown)
VH: QVQLQESGPGLVKPSETLSVTCTVSGGSINDYYWNWIRQPAGKGLEWIGRIYASGTINYNPSLQSRVTMSIDTSKNQFSLDLISVSAADTAVYYCARWGQVVGDYYYGMDVWGQGTTVTVSS
VL: EIVLTQSPLSLSVTPGEPASISCKSSQSLQHTNGYNYLDWYLLKPGQSPQLLIFLTSNRASGVPDRFSGSGSGTNFTLKISRVEAEDVGVYYCMEGIQLWTFGQGTKLEIK
notes: as for B1
Turning to B4, the EC50 is 0.64 nM in experiment [1] and 2.9 nM in experiment [2].

B5: NI-308.15O7 (antibody, V domains shown)
VH: QVQLVESGGGVVQPGRSLRLSCAASGFTFSNHAMHWVRQAPGKGLEWVAVISYDGENTYYADSIEGRFTISRDNFKNTLFLQMYSLTADDTAMYFCARGGRRGHFTSYYLDYWGQGTLVTVSS
VL: CDIQMTQSPSSLSASVGDRVTITCRASQNIDKYLNWYQQIPGKAPKLLIYAASSLHSGVPSRFSGSGSGTDFSLTISSLQPEDFAIYYCQQSYSSFRTFGQGTKLEIK
In the case of B5, the EC50 in the experiment with GA5: H-(GA)5HHHHHH-NH2 is > 150 nM; in experiment [1] it was 6.3 nM; in experiment [2], 8.1 nM; in the experiment with GA6: H-(GA)6HHHHHH-NH2 it was 7.9 nM.
